First the molecules themselves.
T1: human calcitonin receptor (human, UniProt P30988 25-474)
T1 construct: whole, on cells; also called hCTR; hCT
T1 sequence (looked up): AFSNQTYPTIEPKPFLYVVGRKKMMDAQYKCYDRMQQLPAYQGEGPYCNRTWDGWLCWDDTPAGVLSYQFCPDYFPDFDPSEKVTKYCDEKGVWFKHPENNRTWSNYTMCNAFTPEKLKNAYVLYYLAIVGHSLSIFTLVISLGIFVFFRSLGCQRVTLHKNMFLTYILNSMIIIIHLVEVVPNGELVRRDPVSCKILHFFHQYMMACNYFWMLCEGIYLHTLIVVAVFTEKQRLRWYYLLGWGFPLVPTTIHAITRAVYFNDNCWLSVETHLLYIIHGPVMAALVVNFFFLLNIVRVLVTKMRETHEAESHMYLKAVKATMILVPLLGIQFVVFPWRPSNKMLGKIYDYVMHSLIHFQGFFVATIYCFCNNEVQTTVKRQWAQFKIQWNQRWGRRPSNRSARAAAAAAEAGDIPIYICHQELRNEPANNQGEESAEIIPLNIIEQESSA

B1: N^ε1-[2-[2-[2-[[(4S)-4-carboxy-4-(19-carboxynonadecanoylamino)butanoyl]amino]ethoxy]ethoxy]acetyl]-[Arg17,Pro21,Pro27,His34]-h-amylin (peptide)
peptide: K([AEEA-γGlu-C20 diacid])CNTATCATQRLANFLRHSSPNFGAIPSSTNVGHNTY-NH2
modifications: disulfide 2-7; N-terminus assumed
SMILES: CC[C@H](C)[C@H](NC(=O)[C@H](C)NC(=O)CNC(=O)[C@H](Cc1ccccc1)NC(=O)[C@H](CC(N)=O)NC(=O)[C@@H]1CCCN1C(=O)[C@H](CO)NC(=O)[C@H](CO)NC(=O)[C@H](Cc1c[nH]cn1)NC(=O)[C@H](CCCNC(=N)N)NC(=O)[C@H](CC(C)C)NC(=O)[C@H](Cc1ccccc1)NC(=O)[C@H](CC(N)=O)NC(=O)[C@H](C)NC(=O)[C@H](CC(C)C)NC(=O)[C@H](CCCNC(=N)N)NC(=O)[C@H](CCC(N)=O)NC(=O)[C@@H](NC(=O)[C@H](C)NC(=O)[C@@H]1CSSC[C@H](NC(=O)[C@@H](N)CCCCNC(=O)COCCOCCNC(=O)CC[C@H](NC(=O)CCCCCCCCCCCCCCCCCCC(=O)O)C(=O)O)C(=O)N[C@@H](CC(N)=O)C(=O)N[C@@H]([C@@H](C)O)C(=O)N[C@@H](C)C(=O)N[C@@H]([C@@H](C)O)C(=O)N1)[C@@H](C)O)C(=O)N1CCC[C@H]1C(=O)N[C@@H](CO)C(=O)N[C@@H](CO)C(=O)N[C@H](C(=O)N[C@@H](CC(N)=O)C(=O)N[C@H](C(=O)NCC(=O)N[C@@H](Cc1c[nH]cn1)C(=O)N[C@@H](CC(N)=O)C(=O)N[C@H](C(=O)N[C@@H](Cc1ccc(O)cc1)C(N)=O)[C@@H](C)O)C(C)C)[C@@H](C)O
notes: also called compound 76
B2: N^ε1-[2-[2-[2-(19-carboxynonadecanoylamino)ethoxy]ethoxy]acetyl]-[His14,Arg17,Pro21,Pro27]-h-amylin (peptide)
peptide: K([AEEA-C20 diacid])CNTATCATQRLAHFLRHSSPNFGAIPSSTNVGSNTY-NH2
modifications: disulfide 2-7; N-terminus assumed
SMILES: CC[C@H](C)[C@H](NC(=O)[C@H](C)NC(=O)CNC(=O)[C@H](Cc1ccccc1)NC(=O)[C@H](CC(N)=O)NC(=O)[C@@H]1CCCN1C(=O)[C@H](CO)NC(=O)[C@H](CO)NC(=O)[C@H](Cc1c[nH]cn1)NC(=O)[C@H](CCCNC(=N)N)NC(=O)[C@H](CC(C)C)NC(=O)[C@H](Cc1ccccc1)NC(=O)[C@H](Cc1c[nH]cn1)NC(=O)[C@H](C)NC(=O)[C@H](CC(C)C)NC(=O)[C@H](CCCNC(=N)N)NC(=O)[C@H](CCC(N)=O)NC(=O)[C@@H](NC(=O)[C@H](C)NC(=O)[C@@H]1CSSC[C@H](NC(=O)[C@@H](N)CCCCNC(=O)COCCOCCNC(=O)CCCCCCCCCCCCCCCCCCC(=O)O)C(=O)N[C@@H](CC(N)=O)C(=O)N[C@@H]([C@@H](C)O)C(=O)N[C@@H](C)C(=O)N[C@@H]([C@@H](C)O)C(=O)N1)[C@@H](C)O)C(=O)N1CCC[C@H]1C(=O)N[C@@H](CO)C(=O)N[C@@H](CO)C(=O)N[C@H](C(=O)N[C@@H](CC(N)=O)C(=O)N[C@H](C(=O)NCC(=O)N[C@@H](CO)C(=O)N[C@@H](CC(N)=O)C(=O)N[C@H](C(=O)N[C@@H](Cc1ccc(O)cc1)C(N)=O)[C@@H](C)O)C(C)C)[C@@H](C)O
notes: also called compound 90
B3: N^ε1-[2-[2-[2-[[2-[2-[2-[[(4S)-4-carboxy-4-(19-carboxynonadecanoylamino)butanoyl]amino]ethoxy]ethoxy]acetyl]amino]ethoxy]ethoxy]acetyl]-[Arg17,Pro21,Pro27,Arg34 … (peptide)
peptide: K([AEEA-AEEA-γGlu-C20 diacid])CNTATCATQRLANFLRHSSPNFGAIPSSTNVGRNTY-NH2
modifications: disulfide 2-7; N-terminus assumed
SMILES: CC[C@H](C)[C@H](NC(=O)[C@H](C)NC(=O)CNC(=O)[C@H](Cc1ccccc1)NC(=O)[C@H](CC(N)=O)NC(=O)[C@@H]1CCCN1C(=O)[C@H](CO)NC(=O)[C@H](CO)NC(=O)[C@H](Cc1c[nH]cn1)NC(=O)[C@H](CCCNC(=N)N)NC(=O)[C@H](CC(C)C)NC(=O)[C@H](Cc1ccccc1)NC(=O)[C@H](CC(N)=O)NC(=O)[C@H](C)NC(=O)[C@H](CC(C)C)NC(=O)[C@H](CCCNC(=N)N)NC(=O)[C@H](CCC(N)=O)NC(=O)[C@@H](NC(=O)[C@H](C)NC(=O)[C@@H]1CSSC[C@H](NC(=O)[C@@H](N)CCCCNC(=O)COCCOCCNC(=O)COCCOCCNC(=O)CC[C@H](NC(=O)CCCCCCCCCCCCCCCCCCC(=O)O)C(=O)O)C(=O)N[C@@H](CC(N)=O)C(=O)N[C@@H]([C@@H](C)O)C(=O)N[C@@H](C)C(=O)N[C@@H]([C@@H](C)O)C(=O)N1)[C@@H](C)O)C(=O)N1CCC[C@H]1C(=O)N[C@@H](CO)C(=O)N[C@@H](CO)C(=O)N[C@H](C(=O)N[C@@H](CC(N)=O)C(=O)N[C@H](C(=O)NCC(=O)N[C@@H](CCCNC(=N)N)C(=O)N[C@@H](CC(N)=O)C(=O)N[C@H](C(=O)N[C@@H](Cc1ccc(O)cc1)C(N)=O)[C@@H](C)O)C(C)C)[C@@H](C)O
notes: also called compound 95
B4: N^ε1-[2-[2-[2-[[2-[2-[2-[[(4S)-4-carboxy-4-(19-carboxynonadecanoylamino)butanoyl]amino]ethoxy]ethoxy]acetyl]amino]ethoxy]ethoxy]acetyl]-[Arg17,Pro21,Pro27,Pro31 … (peptide)
peptide: K([AEEA-AEEA-γGlu-C20 diacid])CNTATCATQRLANFLRHSSPNFGAIPSSTPVGSNTY-NH2
modifications: disulfide 2-7; N-terminus assumed
SMILES: CC[C@H](C)[C@H](NC(=O)[C@H](C)NC(=O)CNC(=O)[C@H](Cc1ccccc1)NC(=O)[C@H](CC(N)=O)NC(=O)[C@@H]1CCCN1C(=O)[C@H](CO)NC(=O)[C@H](CO)NC(=O)[C@H](Cc1c[nH]cn1)NC(=O)[C@H](CCCNC(=N)N)NC(=O)[C@H](CC(C)C)NC(=O)[C@H](Cc1ccccc1)NC(=O)[C@H](CC(N)=O)NC(=O)[C@H](C)NC(=O)[C@H](CC(C)C)NC(=O)[C@H](CCCNC(=N)N)NC(=O)[C@H](CCC(N)=O)NC(=O)[C@@H](NC(=O)[C@H](C)NC(=O)[C@@H]1CSSC[C@H](NC(=O)[C@@H](N)CCCCNC(=O)COCCOCCNC(=O)COCCOCCNC(=O)CC[C@H](NC(=O)CCCCCCCCCCCCCCCCCCC(=O)O)C(=O)O)C(=O)N[C@@H](CC(N)=O)C(=O)N[C@@H]([C@@H](C)O)C(=O)N[C@@H](C)C(=O)N[C@@H]([C@@H](C)O)C(=O)N1)[C@@H](C)O)C(=O)N1CCC[C@H]1C(=O)N[C@@H](CO)C(=O)N[C@@H](CO)C(=O)N[C@H](C(=O)N1CCC[C@H]1C(=O)N[C@H](C(=O)NCC(=O)N[C@@H](CO)C(=O)N[C@@H](CC(N)=O)C(=O)N[C@H](C(=O)N[C@@H](Cc1ccc(O)cc1)C(N)=O)[C@@H](C)O)C(C)C)[C@@H](C)O
notes: also called compound 96

The results in this text go back to US20140087995A1 (published 2014).

Numbered stars: 1 amine (or outer) side, 2 acyl side, 3 side chain; on linkers, the order of the positions; unused ones are H or OH. Bridge positions count the residues as written; N and C are the ends. Side chains are listed from the residue outwards. Ends that are not written are not given here. * marks the point of attachment. C20 diacid = O=C(O)CCCCCCCCCCCCCCCCCCC(=O)*; γGlu = O=C(O)[C@H](CCC(=O)[*:2])N[*:1]; AEEA = NCCOCCOCC(=O)O

For the first assay, the target named is T1, human calcitonin receptor. The assay can be described thus: SPA radioligand competition (125I-calcitonin), membranes of BHK cells with human calcitonin receptor. As for the experimental part: Membranes were prepared in the following way; the cells were rinsed with PBS and incubated with Versene for approximately 5 min before harvesting. The cells were flushed with PBS and the cell-suspension was centrifuged for 5 min at 1000 rpm. Cells were homogenized (Ultrathurrax) in a buffer containing 20 mM Na-HEPES and 10 mM EDTA (pH 7.4) and centrifuged at 20.000 rpm for 15 min. The resulting pellet was resuspended, homogenized and centrifuged (20.000 rpm, 15 min) in a buffer containing 20 mM Na-HEPES and 0.1 mM EDTA (pH 7.4, buffer 2). The resulting pellet was resuspended in buffer 2 and protein concentration was measured (BCA protein Assay, Pierce). The homogenate was kept cold during the whole procedure. The membranes were kept at −80° C. until use. Assay was performed in a 384 well Optiplate (PerkinElmer) in a total volume of 40 ul. Membranes were mixed with SPA beads. Final concentration of membranes 35 ng/μL final and Final concentration of SPA beads was 0.05 mg/well. Test-compounds were dissolved in DMSO and further diluted in assay buffer (50 mM Hepes, pH 7.4, 1 mM CaCl2, 5 mM MgCl₂, 0.1% OA and 0.02% Tween20). […] The final mixture was incubated for 120 min with shaking at 400 rpm at 25° C. prior to centrifugation (1500 rpm, 10 min). Samples were analyzed on TopCounter™ (Packard). The […] was calculated using (one site binding competition analysis) GraphPad Prism5 as a measure of receptor affinity.
(In general: Loss of bound radioactivity is the signal in a displacement assay; it reports binding, not function.)
In general, IC50 refers to the point on the concentration scale where inhibition reaches its midpoint. Turning to B1, the IC50 is 17.2 nM.

Regarding B2, the IC50 is 2.57 nM.

In the case of B3, the IC50 amounted to 61.3 nM.

On to B4, for which the IC50 came out at 13.2 nM.

Another assay concerns the target T1, human calcitonin receptor. The assay can be described thus: ratio of IC50 at human calcitonin receptor to IC50 at human amylin receptor (SPA competition assays). As to the method:
The resulting pellet was resuspended, homogenized and centrifuged (20.000 rpm, 15 min) in a buffer containing 20 mM Na-HEPES and 0.1 mM EDTA (pH 7.4, buffer 2). The resulting pellet was resuspended in buffer 2 and protein concentration was measured (BCA protein Assay, Pierce). The homogenate was kept cold during the whole procedure. The membranes were kept at −80° C. until use. The assay was performed in a 384 well Optiplate (PerkinElmer) in a total volume of 40 ul. Membranes were mixed with SPA beads. Final concentration of membranes 35 ng/μL final and SPA beads was 0.05 mg/well. Test-compounds were dissolved in DMSO and further diluted in assay buffer (50 mM Hepes, pH 7.4, 1 mM CaCl2, 5 mM MgCl₂, 0.1% OA and 0.02% Tween20). […] The final mixture was incubated with shaking at 400 rpm for 120 min at 25° C. prior to centrifugation (1500 rpm, 10 min). Samples were analyzed on TopCounter™ (Packard). The IC₅₀ was calculated using (one site binding competition analysis) GraphPad Prism5 as a measure of receptor affinity.
Membranes were prepared in the following way; the cells were rinsed with PBS and incubated with Versene for approximately 5 min before harvesting. The cells were flushed with PBS and the cell-suspension was centrifuged for 5 min at 1000 rpm. Cells were homogenized (Ultrathurrax) in a buffer containing 20 mM Na-HEPES and 10 mM EDTA (pH 7.4) and centrifuged at 20.000 rpm for 15 min. The resulting pellet was resuspended, homogenized and centrifuged (20.000 rpm, 15 min) in a buffer containing 20 mM Na-HEPES and 0.1 mM EDTA (pH 7.4, buffer 2). The resulting pellet was resuspended in buffer 2 and protein concentration was measured (BCA protein Assay, Pierce). The homogenate was kept cold during the whole procedure. The membranes were kept at −80° C. until use. Assay was performed in a 384 well Optiplate (PerkinElmer) in a total volume of 40 ul. Membranes were mixed with SPA beads.
Take B1: the “Ratio hCT/hAmylin binding” value is 80.

For the molecule B2, the “Ratio hCT/hAmylin binding” value was determined as 42.2.

As for B3, the “Ratio hCT/hAmylin binding” value is 63.4.

Consider B4, for which the “Ratio hCT/hAmylin binding” value is 79.6.
